Measurements from a protein production outcome set (Wang et al. 2014).

Experiment: label from the status in PepcDB records

Sequence | protein production
MSVDDSADVVVVGAGPAGSAAAAWAARAGRDVLVIDTATFPRDKPCGDGLTPRAVAELHQLGLGKWLADHIRHRGLRMSGFGGEVEVDWPGPSFPSYGSAVARLELDDRIRKVAEDTGARMLLGAKAVAVHHDSSRRVVSLTLADGTEVGCRQLIVADGARSPLGRKLGRRWHRETVYGVAVRGYLSTAYSDDPWLTSHLELRSPDGAVLPGYGWIFPLGNGEVNIGVGALSTSRRPADLALRPLISYYTDLRRDEWGFTGQPRAVSSALLPMGGAVSGVAGSNWMLIGDAAACVNPLNGEGIDYGLETGRLAAELLDSRDLARLWPSLLADRYGRGFSVARRLALLLTFPRFLPTTGPITMRSTALMNIAVRVMSNLVTDDDRDWVARVWRGGGQLSRLVDRRPPFS | failed
MKIAIASGKGGTGKTTVAVNLALALEEVQLFDCDVEEPNCNLFLGFEMEPVEEVVFLVPEINPDKCTLCRGCSDFCRYNALAAIPNRILSFPSLCHGCGGCSFVCPAGAIEEKPETIGIIQKALSDSPLTFFCGTLKIGKATATPVIKSLQNHIDESRPAIIDSPPGTACPVLAVMGFADYCVLVTESTPFGFHDFCLALEAARALNVPVGVVLNRDGLGDSRVEDFCRAEGIPILLRIPNDRTIARLYSEGIPFVKEMPEWKKQFKDMFETIKTGLYESKGVQLEHHHHHH | failed
GRDFAVDTKIETIGLTGSLSFKVNDNFSLGAGVIIQRTSGFVSQNLDLYASAANSPGMGGIPFPASNSSALMRVKVDNTSPGFFAGAVWKPTDRDTLGFAYHAKIRNKLKGHYNLYDHDGGLTEGAIEGGTPGLAYPGLDLRMGASASARLDIPAYASLDWVHQFNDRLSLGASATWTEWSSFQDLTLKSHGNTIVSIPYTYRNTWTLAVGGDYKVTDQWTMRAGVAYDQTPTHNATRDPRIPDGDRYFASLGAGYRFQSMPELSIDAAYSRQFVKEVPLKTV | failed
ATSYMTCSAYQKVQDSEISFPAGVEVQVLEKQESGWWYVRFGELEGWAPSHYLVLDENEQPDPSGKE | not failed
MRILSIHLKNIKSHRDTELTFSAGINVLSGPNGVGKSTVFEAIGYALFGVDARDFVSNVDRFLSIGTKKGEIAVAFCTDAGETWRVTRTVGTPAKWLLAREQGGAFEVEEHARIEETEARIAELLGLDNGRPLAEQFKLVIGPFQNEFLGPFVIKQPTKRQEAFDEILGIDAWRKTYKSTSSLLSAVQEKIKIIAVEIEAKEAQVAVLPEREDELAKIKTDAEALRKVLSSQADALRDVEKQLVELDDQEKGIAALQAEIQILVNRITDGEGKIKDQGQRVGEAEKAGGVLEQTRAGKEAFERAESRLAELVSKDKQRREVEKDVTRLENETQRLTQAVEHEQKEIEGEGRRLREEEDALAKARNELEPDRKVVDTAGRLPGLRDEINRVRSEKGLLEGRRIGLLEGQEKLGEGTCPFFKEPCRNVAGTTPKDVFTTRIAELDRKMQALTEALGKLSVEVADAEAAEKQLAALTVRSQELHKQTMGLVERRARNEKRVATLQTLSTQQIEAATRAKARRDDLQVFAGLDHEIERATAERGRFQADRDAYHAHEKDALDLDNRRQTLEKMLRLLDELQKQLIGKKEELIRLQETYKPGQHKEARDQKDRLVAQVASLGQQIENLEKDRKRLEDEIGKLKLLKDEIGRKQAERNSFEQKEKLVKFLRNQVFKNVSAQLSERFREEISLRADRIYRTIAEADEELVWSENYQIVLRDMTDGVVRERSDDQLSGGQTMSAVVALRLALLQTIGARIAFFDEPTSNLDASRRENLATAFRAIDVGREEVTEHWYDQLFLISHDVAFTEITDQMIQLGE | failed
MSVADSYFDELFRNNDDPWAFKQRWYERRKRALTLAALPRERYRAIFEPGCANGELSADLAERCDMLVCCDTSTQAVELARQRLADVPHARVVQARLPHQWPAGQFDLIVFSELGYYLDAADLHRLIDCALAALSPDGQLLACHWRPDIEGCPLNAQAVHAILAERLSMHRLFSHHEQDFLLDLWSRDGLEHHHHHH | failed
MKSITQLENKKVLVLGLAKSGEAAARLLAKLGAIVTVNDGKAFEENPSAQSLLEEGIKVVCGGHPLELLDENFELMVKNPGIRYDNPMVARALEKEIPVWTEVELAYLVSEAPIIGITGSNGKTTTTTMIADVLNHGGKSGVLSGNIGFPASEVAQSVTNQDTLVMELSSFQLMGIESFHPHIAVITNLMPTHIDYHGSFEEYVAAKWNIQNEMTSDDFIILNFNQDLAKELATQTNAQVVPFSTVEKVDGAYLENGGLYFKGELLMHADELGVPGSHNVENALATIAVAKLSGVSNQAIKETLSSFGGVKHRLQFVDTIDDVKFYNDSKSTNILATQKALSGFDNSKVILIAGGLDRGNEFDELIPDITGLKKMVILGESAPRVKRAADKAGVTYLDAKDVADATRIAFEQASAGDVVLLSPANASWDMYKNFEVRGDEFITTVERLKG | failed
GPLGSAMRELLLSDEYAEQKRAVNRFMLLLSTLYSLDAQAFAEATESLHGRTRVYFAADEQTLLKNGNQTKPKHVPGTPYWVITNTNTGRKCSMIEHIMQSMQFPAELIEKVCGTI | not failed
MLEVDVVRISVIVPIYNVKLYIERCVRSLMEQTLENIEFIFVNDCTPDDSMDILHYVLEEYPKRREQIKIIEHETNRGISAVRNTGLKNATGQYIIYCDSDDWVEKNMYEKLLVKALETSADIVGCDFFDDYVAHSTIRKQLFPQQSEKCVKKMLRGELHCGTWNKLVIKSLYERTKIDFPEGINMWEDVSTIIPLCFHATKIDYIPEALYHYIHHNVSSYTYSVTEKSLENLVASIQLLESFFLTNQCFKTFGEDLCFMKLTVKLNLLLGSKGELQKKRNMLYSSANRYIFSYSGMSWYWKIALWVASKKMLFCFNVMSCIERIIKKWKLEHHHHHH | failed
MSGVASGKTAIKSTAKVLSFVVQKHWATRLHYDFRLELEGTMKSWAVPKGPSFDPNDKRMAVHVEDHPISYNSFEGEIPSGQYGAGKVIIWDKGTWIPLEDPHKGYRDGKLKFELRGLKLKGHWALVRMRKEENKKQEPWLLIKEKDEYVRSSREYSVVDEMPDSVAELEHHHHHH | failed
MESEGEAQMFADCDQKTVKQTAAKPMSSKKKQDFQALASDRQLAIVFSSMIQVSEAFDYGIGNPEYFVRISMTEEEADIAKENLESIKLENKSLKKQNSEAVALLQKTRNQDMSRIEIQQLTENRAGFFETADSMIKLINQVTPKNAKKTRQQLDQLKKQYTQYSAESIKIMNSIVKKQKADKASFERHLEALLQKQPGQQVRSELYLEHHHHHH | not failed
MTPAARLSAAIELIDTIERDRVPAAKALKEWGTAHRFAGSGDRAAIAGLVWDVLRRYASSAFLMDADTARARLIGMLRLERDMDAATMAALFDGSRFAPAPLTEAEQAALSHRSLRDAPAAIAGDYPEWLDPHLAKVFGEDRAAEAAAMASRAPLDLRVNTLKSNRDKVLRALAHLHAKPTPWSATGLRIELSADARNPGIQAEEDFIKGAVEVQDEGSQLAAQFTAAKPGEQVIDLCAGAGGKTLALAAMMQGKGRLIATDSDKRQLAPIHERLSRAGVHNADVRTPKGEADPLADISATADLVVIDAPCTGTGTWRRNPDAKWRMRPGALEIRLRDQAEVLERAVPLVKLGGRIAYITCSVLAEENGEQVRAFIGRHPEFAVVPPEQIASVLWDKAEDFAKAALQSPEGWLMTPRRTGTDGFFVSVLKKTA | failed
MAFQVKIHQIRAFVEVARQGSIRGASRMLNMSQPALSKSIQELEEGLAAQLFFRRSKGVTLTDAGESFYQHASLILEELRAAQEDIRQRQGQLAGQINIGMGASISRSLMPAVISRFHQQHPQVKVRIMEGQLVSMINELRQGELDFTINTYYQGPYDHEFTFEKLLEKQFAIFCRPGHPAIGARSIKQLLDYSWTMPTPHGSYYKQLSELLDDQAQTPQVGVVCETFSACISLVAKSDFLSKLPEEMGCDPLHGQGLVMLPVSEILPKAAYYLIQRRDSRQTPLTASLITQFRRECGYLQS | failed
MTIQLLNDRYQVIRTLGAGGFGETYLAEDTYMPSKRRCVVKQLRPIQNNPQIYQLVQERFQREAAILEELGGATEQIPALYAYFSADGQFYLVQEWVEGDTLTGRLQQQGLFTESAIQELLVNLLPVLEYVHSKHIVHRDIKPDNIILRHRDGKPVLIDFGAVRESMGTVVNSQGNPTSSIVIGTPGYMPSEQAAGRPVYSSDLYSLGLTAIYLLTGRQPQTLEIDSQTGEIMWRQYASQMNPILASVLDKAIAYHPRDRYATARAMLDNLQSISSPIPPTQPYFAPPPVVSAPPQPTVPVAPQANVTGNNQKGILFGSLIAGGLIGASVIIGLAFTRTPQPVAENNNTSPVNSITETPVIKATPEVTQPPVTAQPIVPSPQQQVNSSPFPSITSVPIDVNINNNNYLWLSQQAVTDADLDDKDGYTLDIMRNTVFARHGRRFDNPGLQDYFNNQPWYNPIYSPKEFPIKLLTRLEQRNVDYIAAYQKRYNLRHFK | failed
MEYSRDSAEMMMETKRNVYSLEDNKIKRHKSSDLSFSSKERKDKLAERISALQQLVSPYGKTDTASVLLEGMQYIQFLQEQVKVLSAPYLQATPSTTEEEVEEYSLRSKGLCLVPLEYTSEVAQTNGADIWAPVKTPTSSHAFNLSSSNSPFQ | failed
MWVRVPPPAPFSIFLSPGDDIVKRRKSTRTSSFGVKGRESHDSSPFYSRAIYSNFSLPKPSEEDLIENPLPENLLDKVIEGDAREVLKKIPDCSIHLMVTSPPYNVGKEYDEDMTLDEYLEFIEEIMKEVYRVLVWGGRACFNVANLGRKPYIPLHAYLIHLFEKIGFLIRGEIIWDKGEAVSGSSTAWGSWMSPVNPVLRDQHEYIIVMSKGDLKRRKPSDREAKSTITREEFLEFTRSVWKFPPESAKRVGHPAPFPEELPYRCIQLYTFKGDVVLDPFAGVGTTCVAAVKTGRHFVGIEINPEYVKKAEERVKDILSKPTLFEDHC | failed
MNVRHISYFNQWHGALVTNMLAGVLLALALLPGAIAFSFIAGVSPTIGMLSTGLMMLVISLTGNRTLMVSAPSSGVSLVVAPLMSSHGMPAVILATLIMGIIQILMGICRINKLLDYIPTGVVIGFMNALGVLLFTSQLKNILNISNATYVIAVASFLIIWLAQRYIRFMPAPLIAIIILTICAWWLKPDIVYVHHLASLHIHVPMLSFPDAMYDMHIVGISSMYGVTMAIVAVVQTTLTARMMDAVTATKSDKNKETIGQGVANTIVALFGGYGGSALVGQSRFNATMGATSRVSTLITGAFLLISLFVFGDIIGQIPMAVLATVLITISLNTFDRRTISFIKVSPIKHGAIVVLTMLIILSTNNLAAGVVLVSLLYYLIQGFNKRKGRDI | failed
IDLAHPDLALHLHLNRGGAVLSLDGSGVSLHRRGYRAAMGAAPLKENLAAGLIQLTGWDGRMPLVDPFCGSGILLIEAVTMALQQAPGLGRQFGLEGWADFDRELWEREHARARQRRRSDLDLAPVVGYEQDPLIADQARDNIRAAGLDGLISIHSGSFEQQTLPPGPGLLVCNPPYGHRVGSEDDLEQLYRLLGSFVREQASGWQLWLLSGNASLTGALRLKASRRIPVSNGGIDCRWLNYGIR | failed
AIAKLPISTISPIHYMKSVVSSRETRNESNKSRRTFASTEWNKIIRETLYLETVYIPVDATSHSPDIIFKLQSPVEPKVLTVGVACKGRWKSEGIGWSDIIDEAKKFLDPVYDQVLSSAMDYHHCMLIIVSTKLSLNVSNELGNQSRCYSSGMFIGGDSFKVPDNCELVILCERDVQMLIDKEILNGLERAFCVSHNPTFWDFGLDLLDRIRNSFLSWQ | failed
GPVPTPPDNIQVQENFNISRIYGKWYNLAIGSTCPWLKKIMDRMTVSTLVLGEGATEAEISMTSTRWRKGVCEETSGAYEKTDTDGKFLYHKSKWNITMESYVVHTNYDEYAIFLTKKFSRHHGPTITAKLYGRAPQLRETLLQDFRVVAQGVGIPEDSIFTMADRGECVPGEQEPEPILIPRV | not failed
